Values joined by “and” are separate entries in the source; they are usually repeats but may differ in a detail not shown here. Equal values may be shown once.
Molecular target: the molecule itself
Test: SEC

B1: Recombinant His6-Sec18p (enzyme, S. cerevisiae, UniProt P18759 1-758, looked up)
chain: MFKIPGFGKAAANHTPPDMTNMDTRTRHLKVSNCPNNSYALANVAAVSPNDFPNNIYIIIDNLFVFTTRHSNDIPPGTIGFNGNQRTWGGWSLNQDVQAKAFDLFKYSGKQSYLGSIDIDISFRARGKAVSTVFDQDELAKQFVRCYESQIFSPTQYLIMEFQGHFFDLKIRNVQAIDLGDIEPTSAVATGIETKGILTKQTQINFFKGRDGLVNLKSSNSLRPRSNAVIRPDFKFEDLGVGGLDKEFTKIFRRAFASRIFPPSVIEKLGISHVKGLLLYGPPGTGKTLIARKIGTMLNAKEPKIVNGPEILSKYVGSSEENIRNLFKDAEAEYRAKGEESSLHIIIFDELDSVFKQRGSRGDGTGVGDNVVNQLLAKMDGVDQLNNILVIGMTNRKDLIDSALLRPGRFEVQVEIHLPDEKGRLQIFDIQTKKMRENNMMSDDVNLAELAALTKNFSGAEIEGLVKSASSFAINKTVNIGKGATKLNTKDIAKLKVTREDFLNALNDVTPAFGISEEDLKTCVEGGMMLYSERVNSILKNGARYVRQVRESDKSRLVSLLIHGPAGSGKTALAAEIALKSGFPFIRLISPNELSGMSESAKIAYIDNTFRDAYKSPLNILVIDSLETLVDWVPIGPRFSNNILQMLKVALKRKPPQDRRLLIMTTTSAYSVLQQMDILSCFDNEIAVPNMTNLDELNNVMIESNFLDDAGRVKVINELSRSCPNFNVGIKKTLTNIETARHDEDPVNELVELMTQSA
Question: For B1, which “stoichiometry N” value is on record?
Answer: The value was 6 and 2.

Reference: PMC5023487 (Traffic (Copenhagen, Denmark), 2016)
